We go through three molecules from patent US20170204172A1 (IMMUNDIAGNOSTIK, published 2017).

The target in experiment [1] is T1, human bone sialoprotein (BSP) in plasma (human, UniProt P21815 17-317, phosphorylated serine at positions 31, 67, 74, 75, 94, 100, 149, 280; sulphated tyrosine; multiple complex glycosylation (as described for human BSP)).
T1 construct: Native BSP as present in human plasma; also called human BSP; hBSP
T1 sequence (looked up): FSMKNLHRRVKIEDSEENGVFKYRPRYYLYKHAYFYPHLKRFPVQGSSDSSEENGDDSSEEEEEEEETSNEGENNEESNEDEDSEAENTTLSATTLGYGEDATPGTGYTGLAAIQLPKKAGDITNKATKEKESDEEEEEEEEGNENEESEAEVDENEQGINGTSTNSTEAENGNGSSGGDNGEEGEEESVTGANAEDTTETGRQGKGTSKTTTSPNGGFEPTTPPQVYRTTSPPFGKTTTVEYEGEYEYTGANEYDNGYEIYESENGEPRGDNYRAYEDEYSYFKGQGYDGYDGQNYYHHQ
The experiment is described as follows: titration and competition experiments.

Experiment [2] deals with T1, human bone sialoprotein (BSP) in plasma. Description: screening of a phagemid single chain antibody library with peptide antigen and human BSP in plasma. The source says:
We screened differentially a synthetic human antibody library for an antibody reacting with synthetic peptide epitopes derived and common to rat or human BSP which we assumed being accessible in plasma. Moreover, we screened a proprietary synthetic human antibody library (mAB-Factory GmbH, Braunschweig, DE), prepared in accordance with DE 4122599 C2 and WO 93/01288 (PCT/EP92/01524), for phagemid-expressed single chain antibodies binding to BSP peptide epitopes with a soluble peptide antigen as indicated and with human BSP in plasma. A respective full human antibody (AF165R4.2-E2) specific for human BSP in plasma was obtained and reconstructed.

B1: chimeric version of the rat mAb anti-BSP_IDK1 (antibody, V domains shown)
VH: QVQLQESGAELVRPGSSVKISCKASGYTFTDFYMHWVKQGPEQGLVWIGRINPANGNTIYAEKFKTKATLTADKSSNTAYMQLSSLTSEDTATYFCSSAYWGQGTLVTVSS
VL: DILLTQTPPTSSATIGQSVSISCRSSQSLLDNDGNTYTLYWYLQRPTQSPQLLIYLVSKLRSGVPNRFSGSGSGTDFTLKISGVEAEDLGVYYCVQGTHDPWTFGGGTKLELKR
notes: The entries include a signal peptide that is marked only by underlining in a drawing; Kappa light chain; also called chimeric version of a rat mAB - IDK 1; human chimeric version of a monoclonal rat antibody
Regarding B1, the binding result in experiment [1] is “binds”.

B2: humanized antibody anti-BSP_IDK3 (clone AF177.3) (antibody, V domains shown)
VH: QVQLQQSGAEVVKPGASVKVSCKASGYTFTDFYMHWVKQAPEQGLEWMGIINPANGNTIYAEKFQGRVTMTADKSTNTVYMELSSLTSEDTATYYCSSAYWGQGTLVTVSS
VL: DIVMTQTPPSSSVTIGQPASISCKSSQSLLDNDGNTYLYWYLQKPGQSPQLLIYLVSKRRSGVPDRFSGSGSGTDFTLKISGVEAEDVGVYYCVQGTHDPWTFGGGTKVEIKR
notes: Kappa light chain; also called Humanized mAB of IDK 1
B2: in experiment [1], the binding result is on record as “binds”.

B3: anti-BSP_IDK2 human mAb (clone AF165R4.2-E2) (antibody, V domains shown)
VH: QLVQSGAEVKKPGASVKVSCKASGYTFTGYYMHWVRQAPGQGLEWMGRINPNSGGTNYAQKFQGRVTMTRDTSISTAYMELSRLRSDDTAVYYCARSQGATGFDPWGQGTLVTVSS
VL: QLVLTQSPSASGTPGQRVTISCSGSSSNIGSSYVYWYQQLPGAAPKLLIYRNSQRPPGVPDRFSSSKSGTSASLAISGLRSEDEADYYCATWDGSLSGWVFGGGTKLTVLG
notes: The entries include a signal peptide that is marked only by underlining in a drawing; Lambda light chain; also called fully human anti-hBSP antibody
Regarding B3, in experiment [2], the binding result is recorded as “binds”.
